Measured values: PMC7519299

Molecular target: ATP synthase subunit c (bovine), P32876
Conditions: remark: other sources report otherwise

stoichiometry N: 8
B1: ATP synthase subunit c, P32876 62-136 (natural protein)
chain: DIDTAAKFIGAGAATVGVAGSGAGIGTVFGSLIIGYARNPSLKQQLFSYAILGFALSEAMGLFCLMVAFLILFAM
modifications: here or on the partner: trimethyllysine at position 43; trimethyllysine at position 43
